From patent US6641994B2, “Methods of identifying anti-viral agents” (Pharmacia & Upjohn Company, priority 1999, dated 2003)
Where no end group is shown, it is not given here.

Columns and labels:
CDK2 = target: T1, CDK2 (Homo sapiens, UniProt P20248+P24941); format: biochemical
T1 construct: hemagglutinin (HA); made in house; host or cells: Sf9 or High Five insect cells, baculovirus co-infection

cyclin A/CDK2 = target: T2, cyclin A/CDK2 (Homo sapiens, UniProt P20248+P24941); format: biochemical
T2 construct: hemagglutinin (HA); made in house; host or cells: Sf9 or High Five insect cells, baculovirus co-infection
T2 sequence (P20248 whole entry, one chain of several): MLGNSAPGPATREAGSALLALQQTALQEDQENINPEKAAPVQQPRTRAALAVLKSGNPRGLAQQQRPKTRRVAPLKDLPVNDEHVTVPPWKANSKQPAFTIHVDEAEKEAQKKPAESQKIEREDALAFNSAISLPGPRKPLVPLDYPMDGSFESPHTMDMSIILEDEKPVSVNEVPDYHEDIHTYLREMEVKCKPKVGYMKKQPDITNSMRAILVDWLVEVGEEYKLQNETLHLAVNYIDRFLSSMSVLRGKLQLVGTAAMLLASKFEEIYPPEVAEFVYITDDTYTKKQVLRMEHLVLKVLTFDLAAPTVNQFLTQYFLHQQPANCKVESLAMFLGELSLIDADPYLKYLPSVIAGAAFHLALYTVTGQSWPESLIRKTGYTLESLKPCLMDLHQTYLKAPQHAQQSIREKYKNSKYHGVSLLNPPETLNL

T1 sequence (P20248 whole entry, one chain of several): as above

GST-16E7 (16-38): internal HPV16 E7 region, residues 16-38, GST fusion
induced kinase activity, level relative to that by full length E7 (CDK2): 53%

GST-16E7(1-27): HPV16 E7 truncation, residues 1-27, GST fusion (MHGDTPTLHEYMLDLQPETTDLYCYEQ; also: GST fusion partner left off)
relative kinase activity compared to activity in the presence of full length E7 (CDK2): 28.64% | relative kinase activity compared to full length E7, repeat experiment (CDK2): 52%

GST-E7 (20-48): internal HPV16 E7 region, residues 20-48, GST fusion (TDLYCYEQLNDSSEEEDEIDGPAGQAEPD; also: GST fusion partner left off)
induced kinase activity, level relative to that by full length E7 (CDK2): 33%

GST-HPV16-E7(39-98): HPV16 E7 amino terminal deletion, residues 39-98, GST fusion (DGPAGQAEPDRAHYNIVTFCCKCDSTLRLCVQSTHVDIRTLEDLLMGTLGIVCPICSQKP; cysteine pairing not given here; also: GST fusion partner left off)
activation of cyclinA/CDK2, % of the activation activity of full length GST-HPV 16 E7 (cyclin A/CDK2): 28.6% | activation potential, repeat experiment (cyclin A/CDK2): 18% | induced kinase activity, level relative to that by full length E7 (CDK2): 18%

GST: glutathione-S-transferase alone, control for the fusion proteins [reference compound]
effect on cyclin A/CDK2 histone H1 kinase activity (cyclin A/CDK2): no effect

HPV E7(1-15): HPV16 E7 truncation, residues 1-15, GST fusion (MHGDTPTLHEYMLDL; also: GST fusion partner left off)
relative kinase activity compared to activity in the presence of full length E7 (CDK2): 15%

HPV E7(1-38): HPV16 E7 truncation, residues 1-38, GST fusion (MHGDTPTLHEYMLDLQPETTDLYCYEQLNDSSEEEDEI; also: GST fusion partner left off)
relative kinase activity compared to activity in the presence of full length E7 (CDK2): approximately 72%

HPV E7(1-48): HPV16 E7 truncation, residues 1-48, GST fusion (MHGDTPTLHEYMLDLQPETTDLYCYEQLNDSSEEEDEIDGPAGQAEPD; also: GST fusion partner left off)
relative kinase activity compared to activity in the presence of full length E7 (CDK2): 73.25%

B1: Δ12; Δ24, 26: E7 with combined point mutations Δ12 and Δ24, 26 (protein, UniProt P03129 1-98, looked up, variant M12* C24* E26*)
Protein E7: MHGDTPTLHEYLDLQPETTDLYYQLNDSSEEEDEIDGPAGQAEPDRAHYNIVTFCCKCDSTLRLCVQSTHVDIRTLEDLLMGTLGIVCPICSQKP
modifications: GST fusion
% Control Activation Exp. 1 (CDK2): 85.2% | % Control Activation Exp. 2 (CDK2): 93.5%

B2: HPV E7(1-87): HPV16 E7 truncation, residues 1-87, GST fusion (protein)
chain: MHGDTPTLHEYMLDLQPETTDLYCYEQLNDSSEEEDEIDGPAGQAEPDRAHYNIVTFCCKCDSTLRLCVQSTHVDIRTLEDLLMGTL
modifications: left off: a dimerising Fc or GST
notes: HPV16 E7 truncation, residues 1-87, GST fusion
relative kinase activity compared to activity in the presence of full length E7 (CDK2): 76.67%

B3: HPV6b: low risk-derived E7 from HPV6b, expressed as a GST fusion protein (protein)
chain: MHGRHVTLKDIVLDLQPPDPVGLHCYEQLVDSSEDEVDEVDGQDSQPLKQHFQIVTCCCGCDSNVRLVVQCTETDIREVQQLLLGTLNIVCPICAPKT
modifications: left off: a dimerising Fc or GST
activation of CDK2 histone kinase activity (CDK2): 15.8 fold

B4: HPV E7(1-69): HPV16 E7 truncation, residues 1-69, GST fusion (protein)
chain: MHGDTPTLHEYMLDLQPETTDLYCYEQLNDSSEEEDEIDGPAGQAEPDRAHYNIVTFCCKCDSTLRLCV
modifications: also: GST fusion partner left off
notes: HPV16 E7 truncation, residues 1-69, GST fusion
relative kinase activity compared to activity in the presence of full length E7 (CDK2): 82.45%

B5: GST-HPV16-E7(16-98): GST-E7 construct encoding HPV16 amino acids 16-98 (protein)
chain: QPETTDLYCYEQLNDSSEEEDEIDGPAGQAEPDRAHYNIVTFCCKCDSTLRLCVQSTHVDIRTLEDLLMGTLGIVCPICSQKP
modifications: left off: a dimerising Fc or GST
activation of cyclinA/CDK2, % of the activation activity of full length GST-HPV 16 E7 (cyclin A/CDK2): 53%

B6: Δ12; Δ24, 26; Δ31, 32: E7 with combined point mutations Δ12, Δ24, 26 and Δ31, 32 (protein, UniProt P03129 1-98, looked up, variant M12* C24* E26* S31* S32*)
Protein E7: MHGDTPTLHEYLDLQPETTDLYYQLNDEEEDEIDGPAGQAEPDRAHYNIVTFCCKCDSTLRLCVQSTHVDIRTLEDLLMGTLGIVCPICSQKP
modifications: GST fusion
% Control Activation Exp. 2 (CDK2): 83.1%

B7: GST-HPV16-E7(9-98): GST-E7 construct encoding HPV16 amino acids 9-98 (protein)
chain: HEYMLDLQPETTDLYCYEQLNDSSEEEDEIDGPAGQAEPDRAHYNIVTFCCKCDSTLRLCVQSTHVDIRTLEDLLMGTLGIVCPICSQKP
modifications: left off: a dimerising Fc or GST
activation of cyclinA/CDK2, % of the activation activity of full length GST-HPV 16 E7 (cyclin A/CDK2): 64%
